To fix the notation:
B1: PVALB (protein, UniProt P20472 2-110, looked up)
Parvalbumin alpha: SMTDLLNAEDIKKAVGAFSATDSFDHKKFFQMVGLKKKSADDVKKVFHMLDKDKSGFIEEDELGFILKGFSPDARDLSAKETKMLMAAGDKDGDGKIGVDEFSTLVAES
B2: RASSF2 (protein, UniProt P50749 1-326, looked up)
Ras association …: MDYSHQTSLVPCGQDKYISKNELLLHLKTYNLYYEGQNLQLRHREEEDEFIVEGLLNISWGLRRPIRLQMQDDNERIRPPPSSSSWHSGCNLGAQGTTLKPLTVPKVQISEVDAPPEGDQMPSSTDSRGLKPLQEDTPQLMRTRSDVGVRRRGNVRTPSDQRRIRRHRFSINGHFYNHKTSVFTPAYGSVTNVRINSTMTTPQVLKLLLNKFKIENSAEEFALYVVHTSGEKQKLKATDYPLIARILQGPCEQISKVFLMEKDQVEEVTYDVAQYIKFEMPVLKSFIQKLQEEEDREVKKLMRKYTVLRLMIRQRLEEIAETPATI
B3: SCGB3A2 (protein, UniProt Q96PL1 22-93, looked up)
Secretoglobin family 3A …: FLINKVPLPVDKLAPLPLDNILPFMDPLKLLLKTLGISVEHLVEGLRKCVNELGPEASEAVKKLLEALSHLV
B4: SCARF2 (protein, UniProt Q96GP6 44-871, looked up)
Scavenger receptor class F …: QELNPRGRNVCRAPGSQVPTCCAGWRQQGDECGIAVCEGNSTCSENEVCVRPGECRCRHGYFGANCDTKCPRQFWGPDCKELCSCHPHGQCEDVTGQCTCHARRWGARCEHACQCQHGTCHPRSGACRCEPGWWGAQCASACYCSATSRCDPQTGACLCHAGWWGRSCNNQCACNSSPCEQQSGRCQCRERTFGARCDRYCQCFRGRCHPVDGTCACEPGYRGKYCREPCPAGFYGLGCRRRCGQCKGQQPCTVAEGRCLTCEPGWNGTKCDQPCATGFYGEGCSHRCPPCRDGHACNHVTGKCTRCNAGWIGDRCETKCSNGTYGEDCAFVCADCGSGHCDFQSGRCLCSPGVHGPHCNVTCPPGLHGADCAQACSCHEDTCDPVTGACHLETNQRKGVMGAGALLVLLVCLLLSLLGCCCACRGKDPTRRPRPRRELSLGRKKAPHRLCGRFSRISMKLPRIPLRRQKLPKVVVAHHDLDNTLNCSFLEPPSGLEQPSPSWSSRASFSSFDTTDEGPVYCVPHEEAPAESRDPEVPTVPAEAPAPSPVPLTTPASAEEAIPLPASSDSERSASSVEGPGGALYARVARREARPARARGEIGGLSLSPSPERRKPPPPDPATKPKVSWIHGKHSAAAAGRAPSPPPPGSEAAPSPSKRKRTPSDKSAHTVEHGSPRTRDPTPRPPGLPEEATALAAPSPPRARARGRGPGLLEPTDAGGPPRSAPEAASMLAAELRGKTRSLGRAEVALGAQGPREKPAPPQKAKRSVPPASPARAPPATETPGPEKAATDLPAPETPRKKTPIQKPPRKKSREAAGELGRAGAPTL
B5: ITGB6 (protein, UniProt P18564 22-788, looked up)
Integrin beta-6: GCALGGAETCEDCLLIGPQCAWCAQENFTHPSGVGERCDTPANLLAKGCQLNFIENPVSQVEILKNKPLSVGRQKNSSDIVQIAPQSLILKLRPGGAQTLQVHVRQTEDYPVDLYYLMDLSASMDDDLNTIKELGSRLSKEMSKLTSNFRLGFGSFVEKPVSPFVKTTPEEIANPCSSIPYFCLPTFGFKHILPLTNDAERFNEIVKNQKISANIDTPEGGFDAIMQAAVCKEKIGWRNDSLHLLVFVSDADSHFGMDSKLAGIVIPNDGLCHLDSKNEYSMSTVLEYPTIGQLIDKLVQNNVLLIFAVTQEQVHLYENYAKLIPGATVGLLQKDSGNILQLIISAYEELRSEVELEVLGDTEGLNLSFTAICNNGTLFQHQKKCSHMKVGDTASFSVTVNIPHCERRSRHIIIKPVGLGDALELLVSPECNCDCQKEVEVNSSKCHHGNGSFQCGVCACHPGHMGPRCECGEDMLSTDSCKEAPDHPSCSGRGDCYCGQCICHLSPYGNIYGPYCQCDNFSCVRHKGLLCGGNGDCDCGECVCRSGWTGEYCNCTTSTDSCVSEDGVLCSGRGDCVCGKCVCTNPGASGPTCERCPTCGDPCNSKRSCIECHLSAAGQAREECVDKCKLAGATISEEEDFSKDGSVSCSLQGENECLITFLITTDNEGKTIIHSINEKDCPKPPNIPMIMLGVSLAILLIGVVLLCIWKLLVSFHDRKEVAKFEAERSKAKWQTGTNPLYRGSTSTFKNVTYKHREKQKVDLSTDC
B6: FAM3B (protein, UniProt P58499 30-235, looked up)
Protein FAM3B: ELIPDAPLSSAAYSIRSIGERPVLKAPVPKRQKCDHWTPCPSDTYAYRLLSGGGRSKYAKICFEDNLLMGEQLGNVARGINIAIVNYVTGNVTATRCFDMYEGDNSGPMTKFIQSAAPKSLLFMVTYDDGSTRLNNDAKNAIEALGSKEIRNMKFRSSWVFIAAKGLELPSEIQREKINHSDAKNNRYSGWPAEIQIEGCIPKERS
B7: CLEC7A (protein, UniProt Q9BXN2 1-247, looked up)
C-type lectin domain family 7 …: MEYHPDLENLDEDGYTQLHFDSQSNTRIAVVSEKGSCAASPPWRLIAVILGILCLVILVIAVVLGTMAIWRSNSGSNTLENGYFLSRNKENHSQPTQSSLEDSVTPTKAVKTTGVLSSPCPPNWIIYEKSCYLFSMSLNSWDGSKRQCWQLGSNLLKIDSSNELGFIVKQVSSQPDNSFWIGLSRPQTEVPWLWEDGSTFSSNLFQIRTTATQENPSPNCVWIHVSVIYDQLCSVPSYSICEKKFSM
B8: RGMB (protein, UniProt Q6NW40 46-413, looked up)
Repulsive guidance molecule B: GDCQQPAQCRIQKCTTDFVSLTSHLNSAVDGFDSEFCKALRAYAGCTQRTSKACRGNLVYHSAVLGISDLMSQRNCSKDGPTSSTNPEVTHDPCNYHSHAGAREHRRGDQNPPSYLFCGLFGDPHLRTFKDNFQTCKVEGAWPLIDNNYLSVQVTNVPVVPGSSATATNKITIIFKAHHECTDQKVYQAVTDDLPAAFVDGTTSGGDSDAKSLRIVERESGHYVEMHARYIGTTVFVRQVGRYLTLAIRMPEDLAMSYEESQDLQLCVNGCPLSERIDDGQGQVSAILGHSLPRTSLVQAWPGYTLETANTQCHEKMPVKDIYFQSCVFDLLTTGDANFTAAAHSALEDVEALHPRKERWHIFPSSGN
B9: SCAMP3 (protein, UniProt O14828 1-347, looked up)
Secretory carrier-associated …: MAQSRDGGNPFAEPSELDNPFQDPAVIQHRPSRQYATLDVYNPFETREPPPAYEPPAPAPLPPPSAPSLQPSRKLSPTEPKNYGSYSTQASAAAATAELLKKQEELNRKAEELDRRERELQHAALGGTATRQNNWPPLPSFCPVQPCFFQDISMEIPQEFQKTVSTMYYLWMCSTLALLLNFLACLASFCVETNNGAGFGLSILWVLLFTPCSFVCWYRPMYKAFRSDSSFNFFVFFFIFFVQDVLFVLQAIGIPGWGFSGWISALVVPKGNTAVSVLMLLVALLFTGIAVLGIVMLKRIHSLYRRTGASFQKAQQEFAAGVFSNPAVRTAAANAAAGAAENAFRAP
B10: SLAMF8 (protein, UniProt Q9P0V8 23-285, looked up)
SLAM family member 8: AQVLSKVGGSVLLVAARPPGFQVREAIWRSLWPSEELLATFFRGSLETLYHSRFLGRAQLHSNLSLELGPLESGDSGNFSVLMVDTRGQPWTQTLQLKVYDAVPRPVVQVFIAVERDAQPSKTCQVFLSCWAPNISEITYSWRRETTMDFGMEPHSLFTDGQVLSISLGPGDRDVAYSCIVSNPVSWDLATVTPWDSCHHEAAPGKASYKDVLLVVVPVSLLLMLVTLFSAWHWCPCSGKKKKDVHADRVGPETENPLVQDLP
B11: GLO1 (protein, UniProt Q04760 2-184, looked up)
Lactoylglutathione lyase: AEPQPPSGGLTDEAALSCCSDADPSTKDFLLQQTMLRVKDPKKSLDFYTRVLGMTLIQKCDFPIMKFSLYFLAYEDKNDIPKEKDEKIAWALSRKATLELTHNWGTEDDETQSYHNGNSDPRGFGHIGIAVPDVYSACKRFEELGVKFVKKPDDGKMKGLAFIQDPDGYWIEILNPNKMATLM
B12: IgG Fc receptor II-b (protein, UniProt P31994 43-310, looked up)
Low affinity immunoglobulin …: TPAAPPKAVLKLEPQWINVLQEDSVTLTCRGTHSPESDSIQWFHNGNLIPTHTQPSYRFKANNNDSGEYTCQTGQTSLSDPVHLTVLSEWLVLQTPHLEFQEGETIVLRCHSWKDKPLVKVTFFQNGKSKKFSRSDPNFSIPQANHSHSGDYHCTGNIGYTLYSSKPVTITVQAPSSSPMGIIVAVVTGIAVAAIVAAVVALIYCRKKRISALPGYPECREMGETLPEKPANPTNPDEADKVGAENTITYSLLMHPDALEEPDDQNRI
B13: LAIR1 (protein, UniProt Q6GTX8 22-287, looked up)
Leukocyte-associated …: QEEDLPRPSISAEPGTVIPLGSHVTFVCRGPVGVQTFRLERDSRSTYNDTEDVSQASPSESEARFRIDSVREGNAGLYRCIYYKPPKWSEQSDYLELLVKESSGGPDSPDTEPGSSAGPTQRPSDNSHNEHAPASQGLKAEHLYILIGVSVVFLFCLLLLVLFCLHRQNQIKQGPPRSKDEEQKPQQRPDLAVDVLERTADKATVNGLPEKDRETDTSALAAGSSQEVTYAQLDHWALTQRTARAVSPQSTKPMAESITYAAVARH
B14: RTN4R (protein, UniProt Q9BZR6 27-447, looked up)
Reticulon-4 receptor: CPGACVCYNEPKVTTSCPQQGLQAVPVGIPAASQRIFLHGNRISHVPAASFRACRNLTILWLHSNVLARIDAAAFTGLALLEQLDLSDNAQLRSVDPATFHGLGRLHTLHLDRCGLQELGPGLFRGLAALQYLYLQDNALQALPDDTFRDLGNLTHLFLHGNRISSVPERAFRGLHSLDRLLLHQNRVAHVHPHAFRDLGRLMTLYLFANNLSALPTEALAPLRALQYLRLNDNPWVCDCRARPLWAWLQKFRGSSSEVPCSLPQRLAGRDLKRLAANDLQGCAVATGPYHPIWTGRATDEEPLGLPKCCQPDAADKASVLEPGRPASAGNALKGRVPPGDSPPGNGSGPRHINDSPFGTLPGSAEPPLTAVRPEGSEPPGFPTSGPRRRPGCSRKNRTRSHCRLGQAGSGGGGTGDSEGS

This assay concerns plasma proteins. The assay can be described thus: Plasma proteins modulated between baseline and day 28 in responders (CR, VGPR, PR; n = 19), Example 6 (Table 13). In kind it is in vivo, human. The settings on record: plasma protein (OLINK NPX); responders (CR, VGPR, PR; n = 19); itacitinib 200 mg or 300 mg QD with corticosteroids; day 28 vs baseline. On the procedure:
Due to the limited sample size, steroid-naive (N=10) and steroid-refractory (N=18) patients were combined for further analysis. Broad proteomic analysis of over 1000 proteins was conducted by OLINK Proteomics (Watertown, MA) using a proximity extension assay as described by the manufacturer. Data are presented as normalized protein expression (NPX) in log 2 scale. Statistical differences were evaluated using unpaired and paired t tests, one-way […] (ANOVA), and Pearson Correlation. Significance was conferred when P<0.05.
Longitudinal differences in protein expression were analyzed by evaluating plasma samples from baseline/screening and day 28.
B1: the “Fold Change, Decreased Expression from Baseline to Day 28” value (shortened to “Fold Change, Decreased Expression”) is −2.0291.

On to B2, for which the “Fold Change, Decreased Expression” value is given as −1.5477.

On to B3, for which the “Fold Change, Increased Expression from Baseline to Day 28” value (from here on “Fold Change, Increased Expression”) was 1.3677.

For the molecule B4, the “Fold Change, Increased Expression” value is 1.1639.

B5: the “Fold Change, Increased Expression” value stood at 1.152.

On to B6, for which the “Fold Change, Increased Expression” value is recorded as 1.7951.

For the molecule B7, the “Fold Change, Decreased Expression” value is given as −1.8103.

In the case of B8, the “Fold Change, Increased Expression” value turned out to be 1.1254.

For B9, the “Fold Change, Decreased Expression” value was −1.7405.

For the molecule B10, the “Fold Change, Decreased Expression” value is −1.492.

On to B11, for which the “Fold Change, Decreased Expression” value is −1.2571.

With B12, the “Fold Change, Decreased Expression” value is given as −1.3893.

For the molecule B13, the “Fold Change, Decreased Expression” value was −1.3173.

On to B14, for which the “Fold Change, Increased Expression” value turned out to be 1.195.

The record behind these values is patent US12099068B2, “Biomarkers for graft-versus-host disease” (Incyte Corporation, priority 2018, dated 2024).
